Results published in publication PMC3162888.

Substrate: N=C(N)NCCCC(NC(=O)c1ccccc1)C(=O)Nc1ccc([N+](=O)[O-])cc1
Test: purified protein
Settings: 20 mM TRIS-HCl, 10 mM CaCl2, pH 8.0, 24°C

Protein	Km (50 nM enzyme) [µM]	kcat (50 nM enzyme) [s⁻¹]	kcat/Km (50 nM enzyme) [M⁻¹ s⁻¹]	Km (20 nM enzyme) [µM]	kcat (20 nM enzyme) [s⁻¹]	kcat/Km (20 nM enzyme) [M⁻¹ s⁻¹]
AaSPVII (Aedes aegypti) (protein) VVGGYEVDVKDIPFQVSLQNTYGHFCGGSIISERWVLTAGHCASPRDHGLKVRVGSSQHASGGQLYKVAKIHQHPQYNPSTIDYDFCLLELEKAITFSEVSQSVDLPKLNDPVQDGTLLQVSGWGYTQNPSESRDVLRATNVPAVSQKECSRAYQGTNAVTDRMVCAGYKEGGKDSCQGDSGGPLVEGNTLVGVVSWGVGCAQAGYPGVYSRVAAVRDWVAEVSGV	19.2 ± 1.0	0.35	18500			
AaET (Aedes aegypti) (protein) IVGGFQIDIAEVPHQVSLQRSGRHFCGGSIISPRWVLTAAHCTTNTDPAAYTIRAGSTDRTNGGIIVKVKSVIPHPQYNGDTYNYDFSLLELDESIGFSRSIEAIALPEASETVADGAMCTVSGWGDTKNVFEMNTLLRAVNVPSYNQAECAAALVNVVPVTEQMICAGYAAGGKDSCQGDSGGPLVSGDKLVGVVSWGKGCALPNLPGVYARVSTVRQWIREVSEV				63.0 ± 1.3	2.03	32300
